Measurements reported in publication PMC5813103, “Hydroxynitrile lyases from cyanogenic millipedes: molecular cloning, heterologous expression, and whole-cell biocatalysis for the production of (R)-mandelonitrile” (Scientific Reports, 2018).

Target: Hydroxynitrile lyase from Nedyopus tambanus tambanus (NttHNL) (Nedyopus tambanus tambanus)
Experiment: SEC; gel filtration of the purified native enzyme; Superdex 200 10/300 equilibrated with PBS; native 52400 Da against 28800 Da on SDS-PAGE

Hydroxynitrile lyase from Nedyopus tambanus tambanus (NttHNL) (enzyme)
stoichiometry N: 2
